Reference: patent US20200283521A1 (GRANULAR THERAPEUTICS, published 2020)

How the values were obtained:
Assay in all cases: cell array, transfected fixed HEK293 cells
EDN2 = molecular target: T1, EDN2 (human, UniProt P20800)
T1 construct: expressed in transfected HEK293 cells
T1 sequence (looked up): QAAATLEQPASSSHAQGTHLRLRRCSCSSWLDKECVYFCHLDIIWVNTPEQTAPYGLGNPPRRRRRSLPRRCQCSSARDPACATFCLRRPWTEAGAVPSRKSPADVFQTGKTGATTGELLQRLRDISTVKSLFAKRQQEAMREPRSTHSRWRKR
Protocol: (§1) Transfection of all plasmids was confirmed by screening for the co-encoded marker ZS green (FIG. 13A).
(§2) Primary hits (duplicate spots) were identified by analysing fluorescence (AF647 and ZsGreenl) on ImageQuant. Vectors encoding all hits were sequenced to confirm their correct identities. […] Slides were analysed as above.

EDN1 = molecular target: T2, EDN1 (human, UniProt P05305)
T2 construct: expressed in transfected HEK293 cells
T2 sequence (looked up): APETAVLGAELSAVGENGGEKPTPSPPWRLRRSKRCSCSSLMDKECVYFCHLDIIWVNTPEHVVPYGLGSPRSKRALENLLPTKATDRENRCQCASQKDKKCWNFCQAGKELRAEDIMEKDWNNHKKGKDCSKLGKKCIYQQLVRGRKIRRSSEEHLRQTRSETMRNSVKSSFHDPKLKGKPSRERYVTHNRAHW
Protocol: as §1, §2

KRT19 = molecular target: T3, KRT19 (human, UniProt P08727)
T3 construct: expressed in transfected HEK293 cells
T3 sequence (looked up): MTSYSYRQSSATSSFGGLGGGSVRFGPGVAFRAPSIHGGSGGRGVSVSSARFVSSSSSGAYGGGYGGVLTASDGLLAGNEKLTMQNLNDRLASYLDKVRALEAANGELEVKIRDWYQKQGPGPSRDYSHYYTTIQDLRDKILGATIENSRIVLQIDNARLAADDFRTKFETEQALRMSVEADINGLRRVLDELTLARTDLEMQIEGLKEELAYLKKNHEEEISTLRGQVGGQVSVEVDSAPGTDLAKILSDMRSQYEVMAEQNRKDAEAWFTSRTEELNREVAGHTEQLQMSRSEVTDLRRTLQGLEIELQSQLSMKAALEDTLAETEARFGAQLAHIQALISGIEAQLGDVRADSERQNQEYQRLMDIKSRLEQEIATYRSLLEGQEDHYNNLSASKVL
Protocol: as §1, §2

ZG16B = molecular target: T4, ZG16B (human, UniProt Q96DA0)
T4 construct: expressed in transfected HEK293 cells
T4 sequence (looked up): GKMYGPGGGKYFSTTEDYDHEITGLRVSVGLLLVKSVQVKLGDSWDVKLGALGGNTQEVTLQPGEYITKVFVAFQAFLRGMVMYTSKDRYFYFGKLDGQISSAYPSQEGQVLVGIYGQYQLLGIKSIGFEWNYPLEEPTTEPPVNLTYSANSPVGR
Protocol: as §1, §2

ANXA6 = molecular target: T5, ANXA6 (human, UniProt P08133)
T5 construct: expressed in transfected HEK293 cells
T5 sequence (looked up): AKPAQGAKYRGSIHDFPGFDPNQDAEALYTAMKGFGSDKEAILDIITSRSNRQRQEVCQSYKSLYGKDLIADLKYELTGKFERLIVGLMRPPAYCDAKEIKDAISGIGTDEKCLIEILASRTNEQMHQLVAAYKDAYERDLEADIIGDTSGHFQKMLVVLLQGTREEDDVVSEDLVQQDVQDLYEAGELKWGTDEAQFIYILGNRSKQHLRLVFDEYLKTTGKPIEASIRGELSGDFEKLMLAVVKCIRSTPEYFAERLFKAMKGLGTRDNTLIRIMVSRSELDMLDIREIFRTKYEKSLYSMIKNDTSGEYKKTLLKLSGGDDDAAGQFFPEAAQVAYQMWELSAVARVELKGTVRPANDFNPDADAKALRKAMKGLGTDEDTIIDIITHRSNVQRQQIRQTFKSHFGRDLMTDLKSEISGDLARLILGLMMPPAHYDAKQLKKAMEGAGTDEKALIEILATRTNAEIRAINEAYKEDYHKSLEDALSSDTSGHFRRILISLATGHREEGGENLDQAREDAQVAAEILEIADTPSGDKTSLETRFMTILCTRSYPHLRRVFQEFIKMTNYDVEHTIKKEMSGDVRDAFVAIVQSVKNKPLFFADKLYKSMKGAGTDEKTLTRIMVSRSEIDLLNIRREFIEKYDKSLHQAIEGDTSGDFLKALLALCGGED
Protocol: as §1, §2

PSAPL1 = molecular target: T6, PSAPL1 (human, UniProt Q6NUJ1)
T6 construct: expressed in transfected HEK293 cells
T6 sequence (looked up): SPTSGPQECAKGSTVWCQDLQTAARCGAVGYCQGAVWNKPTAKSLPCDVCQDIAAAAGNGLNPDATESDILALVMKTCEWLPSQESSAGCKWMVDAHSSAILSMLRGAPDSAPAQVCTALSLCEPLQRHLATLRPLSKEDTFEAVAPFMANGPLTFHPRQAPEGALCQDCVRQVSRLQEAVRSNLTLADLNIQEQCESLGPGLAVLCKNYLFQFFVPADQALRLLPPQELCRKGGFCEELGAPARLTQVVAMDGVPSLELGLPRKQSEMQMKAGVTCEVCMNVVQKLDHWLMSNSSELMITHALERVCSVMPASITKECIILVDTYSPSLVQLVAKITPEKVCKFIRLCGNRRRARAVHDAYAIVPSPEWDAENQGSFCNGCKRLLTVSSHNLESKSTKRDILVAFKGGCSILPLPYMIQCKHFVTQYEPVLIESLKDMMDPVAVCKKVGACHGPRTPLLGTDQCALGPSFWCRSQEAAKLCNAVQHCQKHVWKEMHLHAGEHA
Protocol: as §1, §2

DES = molecular target: T7, DES (human, UniProt P17661)
T7 construct: expressed in transfected HEK293 cells
T7 sequence (P17661 2-470 limits assumed): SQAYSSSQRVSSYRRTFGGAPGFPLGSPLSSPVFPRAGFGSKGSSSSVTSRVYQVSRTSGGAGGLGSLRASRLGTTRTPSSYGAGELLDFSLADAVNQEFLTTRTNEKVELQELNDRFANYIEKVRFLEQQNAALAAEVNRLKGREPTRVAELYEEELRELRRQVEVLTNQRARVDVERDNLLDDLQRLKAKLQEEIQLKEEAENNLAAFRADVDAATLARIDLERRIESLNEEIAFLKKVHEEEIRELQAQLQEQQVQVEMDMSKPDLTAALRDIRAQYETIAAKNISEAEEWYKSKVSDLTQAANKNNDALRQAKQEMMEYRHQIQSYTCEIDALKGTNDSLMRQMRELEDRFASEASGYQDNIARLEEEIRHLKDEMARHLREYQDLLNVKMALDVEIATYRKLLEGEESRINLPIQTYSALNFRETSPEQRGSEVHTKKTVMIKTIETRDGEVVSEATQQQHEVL
Protocol: as §1, §2

OSM = molecular target: T8, OSM (human, UniProt P13725)
T8 construct: expressed in transfected HEK293 cells
T8 sequence (looked up): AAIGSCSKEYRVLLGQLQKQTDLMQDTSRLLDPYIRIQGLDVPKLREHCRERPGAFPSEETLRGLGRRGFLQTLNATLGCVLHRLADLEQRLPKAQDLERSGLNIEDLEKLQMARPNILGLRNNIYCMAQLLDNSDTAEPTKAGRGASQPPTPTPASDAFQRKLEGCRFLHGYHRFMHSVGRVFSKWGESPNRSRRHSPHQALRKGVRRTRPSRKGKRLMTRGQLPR
Protocol: as §1, §2

PPT1 = molecular target: T9, PPT1 (human, UniProt P50897)
T9 construct: expressed in transfected HEK293 cells
T9 sequence (looked up): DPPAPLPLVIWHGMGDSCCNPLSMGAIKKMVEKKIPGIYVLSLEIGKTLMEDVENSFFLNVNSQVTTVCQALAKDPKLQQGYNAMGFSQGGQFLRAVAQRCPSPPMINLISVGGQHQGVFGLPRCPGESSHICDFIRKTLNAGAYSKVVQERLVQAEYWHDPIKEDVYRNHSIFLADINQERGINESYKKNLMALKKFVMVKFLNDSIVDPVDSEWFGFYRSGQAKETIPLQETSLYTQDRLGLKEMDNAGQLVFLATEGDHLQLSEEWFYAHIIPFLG
Protocol: as §1, §2

Measured: binding result

B1: MH1, human IgG1 (antibody, V domains shown)
VH: QVQLVQSGAEVKKPGASVKVSCKASGYTFTDYYMNWVRQAPGQGLEWMGRIYPGSGNTYYAQKFQGRVTMTRDTSTSTVYMELSSLRSEDTAVYYCARGVYYYDYWGQGTLVTVSS
VL: DIQMTQSPSSLSASVGDRVTITCRASQGIRTNLAWFQQKPGKAPKSLIYAASSLQSGVPSRFSGSGSGTDFTLTISSLQPEDFATYYCQQYNSYPRTFGGGTKVEIK
notes: IgG1; also called IgG1-MH1
not listed: PPT1
no binding (tested: 2 µg/ml): all other assays above

B2: humanized h37M, human IgG1 (antibody, V domains shown)
VH: QVQLVQSGAEVKKPGASVKLSCKASGYTFTDYYINWVRQAPGKGLEWIARIYPGSGNTYYNEKFKGRATLTADKSTSTAYMQLSSLRSEDTAVYFCARGVYYFDYWGQGTTVTVSS
VL: DIVMTQSPSSLSASVGDRVTITCKASQNVRTNVAWYQQKPGKAPKALIYSASYRYSGVPDRFTGSGSGTDFTLTISSLQPEDFADYFCQQYNSYPRTFGGGTKVEIK
notes: human IgG1; terbium-labelled as the tracer of the HTRF assays; also called C-KIT-h37M; h37M-IgG1
no binding (tested: 2 µg/ml): PPT1
